{"source": "paper PMC4572934", "biological_target": "GST-tagged FXR ligand binding domain (FXR-LBD)", "assay": "AlphaScreen or HTRF; FXR coactivator recruitment assay with increasing amounts of mometasone furoate (MF); GST-FXR-LBD on anti-GST acceptor beads, biotinylated SRC-1 peptide on streptavidin donor beads; 1 hour incubation with ligand, then 4 hours with beads", "data": [{"substance": "biotinylated SRC-1 peptide (co-activator)", "values": [{"measurement": "efficacy of SRC-1 recruitment with MF compared to CDCA", "result": 12, "unit": "%"}]}]}
